US20240003881A1

Tests used:
[1] = target: β10-S (SARS-CoV-2) (UniProt P0DTC2); assay: tNLuc split-luciferase assay in solution with β9-G; CR3022 dose response, allosteric sigmoidal fit
[2] = target: β10-S-β10 (SARS-CoV-2) (UniProt P0DTC2); assay: as above
[3] = target: β10-S-β10 (SARS-CoV-2) (UniProt P0DTC2); assay: tNLuc assay (β9-G/β10-S-β10); CR3022 dose response with 0-100 µg/mL human IgG, allosteric noncompetitive inhibition model

CR3022 (antibody)
Kd [1]: 0.42 µg/mL | Kd [2]: 0.23 µg/mL | Kd [3]: 0.22 µg/mL
